Tests used:
[1] = molecular target: full-length mature cynomolgus EMR2 (residues Q24-N816) with N-terminal aspartic acid/lysine epitope tag, overexpressed on HEK293T cells (cynomolgus monkey (Macaca fascicularis))
[2] = molecular target: full-length mature cynomolgus EMR2 (residues Q24-N816) with N-terminal aspartic acid/lysine epitope tag, overexpressed on HEK293T cells (cynomolgus monkey (Macaca fascicularis)); experiment: flow cytometry on transduced HEK293T; 293 naive MFI 96.8
[3] = molecular target: full-length mature cynomolgus EMR2 (residues Q24-N816) with N-terminal aspartic acid/lysine epitope tag, overexpressed on HEK293T cells (cynomolgus monkey (Macaca fascicularis)); experiment: flow cytometry on transduced HEK293T; 293 naive MFI ND

full-length mature cynomolgus EMR2 (residues Q24-N816) with N-terminal aspartic acid/lysine epitope tag, overexpressed on HEK293T cells (cynomolgus monkey (Macaca fascicularis)), sequence (chain, as listed by the source): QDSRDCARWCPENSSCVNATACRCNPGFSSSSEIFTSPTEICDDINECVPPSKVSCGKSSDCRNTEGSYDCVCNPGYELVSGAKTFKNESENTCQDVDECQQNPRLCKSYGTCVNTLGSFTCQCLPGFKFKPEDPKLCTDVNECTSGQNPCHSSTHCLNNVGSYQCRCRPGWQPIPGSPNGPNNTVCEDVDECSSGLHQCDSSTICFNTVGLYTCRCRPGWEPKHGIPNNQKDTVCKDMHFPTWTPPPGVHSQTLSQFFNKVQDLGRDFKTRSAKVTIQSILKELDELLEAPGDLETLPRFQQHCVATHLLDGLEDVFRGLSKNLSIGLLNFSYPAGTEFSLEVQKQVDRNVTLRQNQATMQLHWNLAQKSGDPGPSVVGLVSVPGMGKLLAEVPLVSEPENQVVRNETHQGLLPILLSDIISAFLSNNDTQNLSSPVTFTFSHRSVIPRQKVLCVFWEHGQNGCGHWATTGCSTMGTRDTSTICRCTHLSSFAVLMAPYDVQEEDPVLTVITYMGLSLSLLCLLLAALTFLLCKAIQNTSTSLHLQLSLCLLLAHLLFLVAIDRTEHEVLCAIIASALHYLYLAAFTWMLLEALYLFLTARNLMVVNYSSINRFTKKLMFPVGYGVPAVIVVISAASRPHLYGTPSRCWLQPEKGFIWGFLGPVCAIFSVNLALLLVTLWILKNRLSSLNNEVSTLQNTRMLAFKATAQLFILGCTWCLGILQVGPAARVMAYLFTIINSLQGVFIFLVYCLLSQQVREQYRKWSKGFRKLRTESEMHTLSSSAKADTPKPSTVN

| FC MFI [2] | FC MFI [3] | Binder | % live, FAB-saporin killing assay [1] [%] |
| --- | --- | --- | --- |
| 220 | – | SC93.216 (antibody, IgG1, V domains shown) VH: EVQLVESGGGLVKPGGSLKLSCAASGFTFSSYGMSWVRQTPEKRLEWVAAIHSNGDITYYPDTVKGRFTISRDNAKNTLYLQMSSLTSEDTALYYCANLAYWGQGTLVTVSA VL: EIQMTQSPSSMSASLGDRITITCQATQDIVKNLNWYQQKPGKSPSSLIYYATELAEGVPSRFSGSGSGSDYSLTISNLESEDFADYYCLQFYEFPLTFGAGTKLELK | 105 |
| – | 41.2 | SC93.15 (antibody, IgG1, V domains shown) VH: EVQLQQSGPELVKPGASVKISCKGSGYTFTDYFMNWVKLSHGKSLEWIGEINPNNGGTNYNQKFKGKATLTVDKSSSIAYMELRSLTSEDSAVYYCARPGTNYWGPGTTLTVSS VL: DIVMTQSHKFMSTSVGDRVSITCKASQNVGTSVAWYQQKPGHSPKLLIYWASTRHTGVPDRFTGSGSGTDFSLTISSVQSEDLTDYFCQQYSSYPLTFGGGTKLEIK | 101 |

From patent US20180327506A1
